In patent US10059956B2, “Glycosyltransferase gene and use thereof” (SUNTORY HOLDINGS LIMITED, priority 2012, dated 2018):

Legend:
[1] = test system: petunia (Surfinia Bouquet Red); experiment: Flower petal pigment analysis of recombinant petunia introduced with NmGT8; format: in vivo
Source text: Binary vectors pSPB5424 and pSBP5428 for expressing NmGT8 were constructed and introduced into petunia (Surfinia Bouquet Red). […] Details of the introduced constructs are described below (see FIG. 17). pBINPLUS was used for the basic skeleton of pSPB5424, and three expression cassettes were contained therein (consisting of 1: E[…] promoter, full-length cDNA pansy F3'5'H (described in PCT/JP2004/011958, SEQ ID NO: 3) and HSP terminator (Plant Cell Physiology (2010), 51, 328-332); 2: E[…] promoter, full-length cDNA torenia flavone synthase and HSP terminator; and 3: E[…] promoter, full-length cDNA NmGT8 and HSP terminator). pBINPLUS was also used for the basic skeleton of pSPB5428, and two expression cassettes were contained therein (consisting of 1: E[…] promoter, full-length cDNA torenia flavone synthase and HSP terminator; and 2: E[…] promoter, full-length cDNA NmGT8 and HSP terminator). Pigments in the flower petals were analyzed for full-length cDNA torenia flavone synthase and full-length cDNA NmGT8 in those stains in which transcription products were confirmed. 0.2 g of completely open flower petals were freeze-dried for 24 hours or more and finely crushed with a spatula, followed by the addition of 4 ml of extract buffer (composition: 50% aqueous acetonitrile solution containing 0.1% TFA) and subjecting to ultrasonic treatment for 20 minutes. The flower petal extract was analyzed by high-performance liquid chromatography (Prominence (Shimadzu Corp.)). Analyses were carried out under the conditions and in the same manner as in Example 5. Non-recombinant petunia not introduced with genes and recombinant petunia introduced only with torenia flavone synthase that biosynthesizes flavone were analyzed in the same manner as controls (FIG. 18). Moreover, flower petal extract diluted 50-fold was also analyzed with a high-performance liquid chromatograph (Shimadzu Corp.). The Shimadzu LCMS-IF-TOF was used for the detector and flavones were detected at 433.1057 ([Api-Glc+H]) and 449.1084 ([Lut-Glc+H]). The Inertsil ODS-4 (250×4.6 mm, 5 Shimadzu Corp.) was used for the column. […]

[2] = test system: NmGT8 protein; experiment: Enzyme reaction of flavone substrates with His-tag purified NmGT8 protein solution and UDP-glucose (HPLC); format: biochemical, Nemophila menziesii; details: reactivity to various flavonoid compounds of FIG. 11 and betanidine
Method: The transformed E. coli were cultured at 37° C. to an OD600 value of 0.5 in 8 ml of the prepared culture liquid (approx. 4 hours). This E. coli culture liquid was then used as a pre-culture liquid and added to 200 ml of culture liquid followed by final culturing overnight at 25° C.
Following final culturing overnight, the E. coli culture liquid was centrifuged (1000×g, 4° C., 10 minutes), the collected cells were suspended in 20 ml of extract (composition: buffer (KCl: 300 mM, KH2PO4: 50 mM, imidazole: 5 mm) (pH 8.0), amidinophenylmethanesulfonyl fluoride hydrochloride (APMSF): 10 μM), and after crushing the E. coli by ultrasonic treatment, the crushed cells were centrifuged (1400×g, 4° C., 20 minutes) followed by recovery of the supernatant. This supernatant was passed through a 0.45 μm filter and purified by His-Tag protein purification using Profinia (Bio-Rad Laboratories, Inc.) in accordance with the protocol recommended by the manufacturer. The resulting purified protein solution was centrifuged (7500×g, 4° C., 15 minutes) using centrifugal filters (Ultracel-10K, Amicon Corp.) and the concentrated protein solution was designated as “NmGT8 Protein Solution”. The Avanti HP-26XP (rotor: JA-2) (Beckman Coulter Inc.) was used for centrifugation.
A reaction liquid prepared by mixing 10 μl of protein solution, 2 μl of 50 mM UDP-glucose, 10 μl of 1 M Tris HCl (pH 7.5) and 5 μl of 1 mM apigenin on ice and bringing to a volume of 100 μl with water was held for 20 minutes at 30° C. Subsequently, 100 μl of stop buffer (90% aqueous acetonitrile solution containing 0.1% TFA) were added to stop the reaction followed by analyzing the reaction liquid by high-performance liquid chromatography (Prominence (Shimadzu Corp.)). The Shimadzu PDA SPD-M10AVP was used for the detector and flavone was detected at 330 nm. The Shim-Pack ODS 150 mm×4.6 mm column (Shimadzu Corp.) was used for the column. A Solution A (0.1% aqueous TFA solution) and a Solution B (90% aqueous methanol solution containing 0.1% TFA) were used for elution. Elution was carried out using a linear concentration gradient from an 8:2 mixture of the two solutions to a 3:7 mixture of the two solutions over the course of 10 minutes followed by a 3:7 mixture for 6 minutes. The flow rate was 0.6 ml/min.

[3] = recombinant petunia flower petal extract, LC-MS

B1: NmGT8: nemophila glycosyltransferase (SEQ ID NO: 1/2) having activity that transfers a sugar to the hydroxyl group at the 4′-position of a flavone (protein, listed as Nemophila menziesii)
chain: MEKKTIILYPSPGIGHLVSMVELAKLILNREPSYSIIIFISSAPYSTGSSAPYISHVSATTSGISFHHLPVLVLPPNTFSSFEEIAYKIPQLNNPNLKLALQTISKESSDLKAFIIDFFCTAAVEVSSNLEIPTYFFFTSGSSAMCQFLYLPTLHETITQKDLQDPNTYVHIPGIPPIHSLDLPKVLSNRSTVLYKELINTANQMAKCSGILINAFETLEPKAVKALKEGLCTPGMPTPPVYCIGPLIASGDKGNVNDAHGHEILTWLNSQPSKSVVFLCFGSLGTFKEDQLKEIAIGLENSGHRFLWVMKSPPIDDKTKRFLPPPEPDFNVLLPEGFLERTKERGVIVKSWAPQLAILNHDAIGGFVTHCGWNSVLEAICGGVPMLAWPLYAEQRVNRVCMVEEMKVALPLEESVDGFVMASEIEKRVKELVDYESSEAIRDQVKIMSEKAKTAVAVSGSSHDALTKLLDGWK
For B1, which “flavone 4′-glucoside share of the biosynthesized flavones” value [1, 3] is on record?
The value was 95.6%.

What about the “flavone 7-glucoside share of the biosynthesized flavones” value [1, 3] of the same molecule?
The value was 4.4%.

What about the “flavones detected in flower petals” value ([1]; recombinant petunia introduced with flavone synthase and NmGT8, HPLC) of the same molecule?
Its value is “apigenin 4′-glucoside and luteolin 4′-glucoside were detected”.

And the substrate specificity [2]?
The substrate specificity was “high substrate specificity and selectively glycosylate the 4′-position of flavones”.
